# Tests used:
# [1] = target: T1, In house human CD8A-Fc (human, UniProt P01732 22-182, limits assumed); assay: SPR (ProteOn), captured hCD8A-Fc
# T1 construct: Captured on goat anti-human Fc on a ProteOn GLC chip; also called hCD8A-Fc; recombinant human CD8 alpha; not shown: linker with flag (and polyhistidine) tag and Fc of human IgG1
# [2] = target: T2, human CD8 alpha (CD8A) on primary human CD8+ T cells (human, UniProt P01732 22-235); assay: flow cytometry, human CD8+ T cells, 2 uM FN3
# T2 construct: whole, on cells; also called hCD8A
# T2 sequence (P01732 22-235): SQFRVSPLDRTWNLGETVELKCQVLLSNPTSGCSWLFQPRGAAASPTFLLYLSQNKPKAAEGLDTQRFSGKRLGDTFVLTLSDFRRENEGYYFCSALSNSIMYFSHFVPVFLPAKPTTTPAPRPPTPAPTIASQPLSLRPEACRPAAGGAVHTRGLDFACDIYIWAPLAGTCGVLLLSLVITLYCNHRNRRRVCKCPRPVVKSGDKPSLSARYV
# [3] = target: T2, human CD8 alpha (CD8A) on primary human …; assay: flow cytometry, human CD8+ T cells, 0.2 uM FN3
# [4] = target: T3, cynomolgus monkey CD8A on primary cynomolgus monkey CD8+ T cells (cynomolgus monkey, UniProt P01732 23-235 (human entry)); assay: flow cytometry, cyno CD8+ T cells, 2 uM FN3
# T3 construct: also called Cyno CD8alpha
# T3 sequence (P01732 other isoform, or with tags, fused parts or gaps limits assumed): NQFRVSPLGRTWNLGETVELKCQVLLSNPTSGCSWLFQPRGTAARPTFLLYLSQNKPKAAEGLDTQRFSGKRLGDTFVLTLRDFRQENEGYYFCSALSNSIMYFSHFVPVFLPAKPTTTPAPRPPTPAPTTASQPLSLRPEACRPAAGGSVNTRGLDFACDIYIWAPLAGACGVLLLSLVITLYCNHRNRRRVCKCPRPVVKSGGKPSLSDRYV
# [5] = target: T3, cynomolgus monkey CD8A on primary …; assay: flow cytometry, cyno CD8+ T cells, 0.2 uM FN3
# [6] = target: T4, human CD8A-Fc (in house) (human, UniProt P01732 22-182, limits assumed); assay: SPR (ProteOn), captured hCD8A-Fc
# T4 construct: captured by goat anti-human Fc on the ProteOn chip; also called hCD8A-Fc; recombinant human CD8 alpha; not shown: linker/tag and Fc of human IgG1
# T4 sequence (P01732 22-182 limits assumed): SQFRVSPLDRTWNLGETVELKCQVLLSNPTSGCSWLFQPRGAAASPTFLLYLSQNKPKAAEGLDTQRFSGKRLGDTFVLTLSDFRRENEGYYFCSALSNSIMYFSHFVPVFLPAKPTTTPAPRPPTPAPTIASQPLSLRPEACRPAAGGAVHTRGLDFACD
# [7] = target: T5, human CD8 alpha (CD8A) on primary human CD8+ T cells (human, UniProt P01732 22-235); assay: flow cytometry, human CD8+ T cells
# T5 construct: whole, on cells; also called hCD8A
# Experimental: (§1) Binding of the 190 ELISA hits to human and cynomologous monkey primary CD8 T cells was assessed by flow cytometry. The FN3 domain molecules were diluted to 2 μM and 0.2 μM in PBS and incubated with human or cynomologous monkey CD8+ T cells in 96-well format. After 1 hour at 4 C, the cells were washed once with PBS and then resuspended with an anti-FN3 domain antibody (PAB25) solution. Following this incubation, the cells were washed twice with PBS and a PE conjugated secondary antibody and a viability dye were added. Finally, cells were washed and resuspended in PBS for flow cytometric analysis using a BD Canto Instrument. Cells were gating on live cells and median fluorescence intensity of the bound Centyrins (PE channel) was calculated using Cytobank software.
# T5 sequence (P01732 22-235): as the sequence (P01732 22-235) above
# [8] = target: T6, cynomolgus monkey CD8 alpha on primary cynomolgus CD8+ T cells (cynomolgus monkey, UniProt P01732 23-235 (human entry)); assay: flow cytometry, cyno CD8+ T cells
# T6 construct: also called Cyno CD8alpha; cyno CD8A
# T6 sequence (P01732 other isoform, or with tags, fused parts or gaps limits assumed): as the sequence (P01732 other isoform, or with tags, fused parts or gaps limits assumed) above
# Experimental: as §1
# T1 sequence (P01732 22-182 limits assumed): as the sequence (P01732 22-182 limits assumed) above
Binder,koff [1] [s⁻¹],Human T-cell Binding 2 uM (MFI) [2] [MFI],Human T-cell Binding 0.2 uM (MFI) [3] [MFI],Cyno T-cell Binding 2 uM (MFI) [4] [MFI],Cyno T-cell Binding 0.2 uM (MFI) [5] [MFI],koff [6] [s⁻¹],Human T-cell Binding 0.2 uM (MFI) [7] [MFI],Human T-cell Binding 2 uM (MFI) [7] [MFI],Cyno T-cell Binding 0.2 uM (MFI) [8] [MFI],Cyno T-cell Binding 2 uM (MFI) [8] [MFI]
"P283BR9P1363_D11 (designed binder, FN3 domain) LPAPKNLVVSRVTEDSARLSWNKKHDGQPTFDSFLIQYQESEKVGEAIVLTVPGSERSYDLTGLKPGTEYTVSIYGVDVVYEGSYPASSNPLSAIFTT",0.000495,8690,2890,20600,11600,,,,,
"P283BR9P1363_A8 (designed binder, FN3 domain) LPAPKNLVVSRVTEDSARLSWVRSDTARFFDSFLIQYQESEKVGEAIVLTVPGSERSYDLTGLKPGTEYTVSIYGVDVKYDIDSRPISSNPLSAIFTT",0.000353,11300,2540,24200,3450,,,,,
"P283BR9P1363_C4 (designed binder, FN3 domain) LPAPKNLVVSRVTEDSARLSWPIVNTPLHFDSFLIQYQESEKVGEAIVLTVPGSERSYDLTGLKPGTEYTVSIYGVDVQYTATGQPERSNPLSAIFTT",0.000409,9070,2250,23400,3270,,,,,
"P283DR9P1364_E8 (designed binder, FN3 domain) LPAPKNLVVSRVTEDSARLSWTAPDAAFDSFSIAYPEWPVHGEAIVLTVPGSERSYDLTGLKPGTEYFVIIYGVKGGVLSEPLSAIFTT",,,,,,0.000756,1180,14300,5510,59300
"P283DR9P1364_B4 (designed binder, FN3 domain) LPAPKNLVVSRVTEDSARLSWTAPDAAFDSFAISYPEWPPPGEAIVLTVPGSERSYDLTGLKPGTEYWVIILGVKGGDQSWPLSAIFTT",,,,,,0.000109,6060,45500,20200,96500
"P283DR9P1364_A4 (designed binder, FN3 domain) LPAPKNLVVSRVTEDSARLSWTAPDAAFDSFYIAYPEWPVQGEAIVLTVPGSERSYDLTGLKPGTEYFVIIYGVKGGDWSEPLSAIFTT",,,,,,0.00109,1024,9490,6650,48300
"P283DR9P1364_B1 (designed binder, FN3 domain) LPAPKNLVVSRVTEDSARLSWTAPDAAFDSFYITYPEIPLGGEAIVLTVPGSERSYDLTGLKPGTEYFVVIYGVKGGLLSSPLSAIFTT",,,,,,0.00156,666,1480,746,8620
"P283DR9P1364_B11 (designed binder, FN3 domain) LPAPKNLVVSRVTEDSARLSWTAPDAAFDSFYISYPEWEQLGEAIVLTVPGSERSYDLTGLKPGTEYFVVIYGVKGGALSAPLSAIFTT",,,,,,0.0013,451,4260,1590,22900
"P283DR9P1364_A7 (designed binder, FN3 domain) LPAPKNLVVSRVTEDSARLSWTAPDAAFDSFRIAYPEWPVRGDAIVLTVPGSERSYDLTGLKPGTEYWVIIQGVKGGTDSFPLSAIFTT",,,,,,0.00197,435,8980,2640,39900

# Now from value to binder:
koff [1] [s⁻¹],Human T-cell Binding 2 uM (MFI) [2] [MFI],Human T-cell Binding 0.2 uM (MFI) [3] [MFI],Cyno T-cell Binding 2 uM (MFI) [4] [MFI],Cyno T-cell Binding 0.2 uM (MFI) [5] [MFI],koff [6] [s⁻¹],Human T-cell Binding 0.2 uM (MFI) [7] [MFI],Human T-cell Binding 2 uM (MFI) [7] [MFI],Cyno T-cell Binding 0.2 uM (MFI) [8] [MFI],Cyno T-cell Binding 2 uM (MFI) [8] [MFI],Binder
,,,,,0.00139,2330,18900,3660,37400,"P283FR9P1366_H11 (designed binder, FN3 domain) LPAPKNLVVSRVTEDSARLSWTAPDAAFDSFQIQYLETAPDGEAIVLTVPGSERSYDLTGLKPGTEYYVWIPGVKGGAFSPLSAIFTT"
,,,,,0.00043,5240,42300,20000,88300,"P283DR9P1364_D9 (designed binder, FN3 domain) LPAPKNLVVSRVTEDSARLSWTAPDAAFDSFGISYPEWPPLGEAIVLTVPGSERSYDLTGLKPGTEYWVIIFGVKGGERSWPLSAIFTT"
,,,,,0.00243,442,5390,2240,28700,"P283DR9P1364_E7 (designed binder, FN3 domain) LPAPKNLVVSRVTEDSARLSWTAPDAAFDSFNIAYPEWPVRGEAIVLTVPGSERSYDLTGLKPGTEYWVIIYGVKGGDRSNPLSAIFTT"
,,,,,0.00129,649,4940,2710,34200,"P283DR9P1364_C10 (designed binder, FN3 domain) LPAPKNLVVSRVTEDSARLSWTAPDAAFDSFQIAYPEWPKDGEAIVLTVPGSERSYDLTGLKPGTEYAVFIWGVKGGVYSNPLSAIFTT"
,,,,,0.00253,317,1280,887,9130,"P283DR9P1364_E3 (designed binder, FN3 domain) LPAPKNLVVSRVTEDSARLSWTAPDAAFDSFGIAYPELPIGGEAIVLTVPGSERSYDLTGLKPGTEYFVIIRGVKGGTLSPPLSAIFTT"
,,,,,0.00661,244,656,365,2480,"P283DR9P1364_D8 (designed binder, FN3 domain) LPAPKNLVVSRVTEDSARLSWTAPDAAFDSFQIAYPETPIQGEAIVLTVPGSERSYDLTGLKPGTEYFVIIHGVKGGITSFPLSAIFTT"
,,,,,0.000825,1270,17600,5090,55700,"P283DR9P1364_E5 (designed binder, FN3 domain) LPAPKNLVVSRVTEDSARLSWTAPDAAFDSFWISYPEWPVPGEAIVLTVPGSERSYDLTGLKPGTEYWVIIQGVKGGKLSWPLSAIFTT"
,,,,,0.0019,548,4300,2100,19700,"P283DR9P1364_E9 (designed binder, FN3 domain) LPAPKNLVVSRVTEDSARLSWTAPDAAFDSFDIAYPEWPTKGEAIVLTVPGSERSYDLTGLKPGTEYFVVINGVKGGWRSFPLSAIFTT"
,,,,,0.000514,4220,32300,16200,70400,"P283DR9P1364_D11 (designed binder, FN3 domain) LPAPKNLVVSRVTEDSARLSWTAPDAAFDSFDIAYPEWPPKGEAIVLTVPGSERSYDLTGLKPGTEYFVVIYGVKGGIHSAPLSAIFTT"

# Reference: patent US20210032312A1 (Janssen / Centocor, published 2021)
